Molecular target: recombinant GST-RhoA (UniProt P61586)
Assay: pull-down; recombinant GST-RhoA on beads; lysates of 293T cells transfected with WT or S9A Fam65b-GFP; 2 h at 4°C; pull-down buffer; anti-GFP immunoblot, band intensities in the pull-down normalised to the total lysate, four independent experiments

Sequence of UniProt P61586 (P61586 whole entry): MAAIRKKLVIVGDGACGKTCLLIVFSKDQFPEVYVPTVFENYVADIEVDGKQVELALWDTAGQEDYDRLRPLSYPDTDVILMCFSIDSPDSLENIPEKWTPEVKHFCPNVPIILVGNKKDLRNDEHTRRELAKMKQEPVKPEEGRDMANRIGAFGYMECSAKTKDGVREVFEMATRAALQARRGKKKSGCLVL

fold of Fam65b bound to RhoA against WT Fam65b-GFP: 1.8 fold
Substance: Fam65b(S9A)-GFP (isoform 2) (natural protein)
